According to the supplement of paper PMC10724198:
± gives the standard deviation of the averaged measurements.

Test system: Saccharomyces cerevisiae
Assay: protein stability index of tFT-peptide fusion (C-terminal peptide) (PSI (0-1 scale)); higher = more stable (slower turnover)
Conditions: genetic background: wild type; temperature: 30 C
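Also: PSI is a weighted mean of sequencing reads over stability bins, variants kept only with over 10 reads, mCherry proximal and sfGFP distal, peptide attached via GGGS linker.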

| Sequence | protein stability index |
| --- | --- |
| PIRAITQRSDGG | 0.682 ± 0.045 |
| PLRVPPPPCSRS | 0.722 ± 0.1 |
| LRSVNVLAALFS | 0.686 ± 0.043 |
| ALVLLIPLSLLL | 0.522 ± 0.11 |
| PPDHLTHPHIVN | 0.693 ± 0.013 |
| PGSYLDAIVYHR | 0.701 ± 0.01 |
| FRLAPPSVYDFV | 0.7008 ± 0.002 |
| SVESEWHLLLTP | 0.744 ± 0.013 |
| CCAVLSSMSSFD | 0.668 ± 0.053 |
| PPPPPPPPPLAF | 0.653 ± 0.12 |
| RTNNIAKNSKNR | 0.713 ± 0.058 |
| LTSVQFNKWTIE | 0.714 ± 0.047 |
| LGGLKCGRLADS | 0.656 ± 0.041 |
| LSAPLPPLSAPP | 0.667 ± 0.0099 |
| AGIFGGGRGVSV | 0.647 ± 0.039 |
| WDGWPTRWGGTG | 0.705 ± 0.017 |
| GSAVLFEFTLKM | 0.651 ± 0.053 |
| WTIVEALPRGVV | 0.679 ± 0.046 |
| DSGTIWFPTHFV | 0.7151 ± 0.0044 |
| WENKKRMIRQKL | 0.526 ± 0.016 |
| HVGGISSPLTPC | 0.656 ± 0.025 |
| PPLTRPPTPVPP | 0.6626 ± 0.0048 |
| AYCGLEGFLGLG | 0.688 ± 0.051 |
| WGRRNFLPNSPR | 0.67 ± 0.049 |
| GHSRSTFPWLVI | 0.79 ± 0.095 |
| TLENEKKKKRNT | 0.704 ± 0.084 |

| Sequence | protein stability index |
| --- | --- |
| PRRARPLALVFH | 0.6 ± 0.033 |
| TLSLGCVDSHGV | 0.696 ± 0.036 |
| PPRSPPPLSPTP | 0.583 ± 0.038 |
| PLTFGLGPVNLP | 0.683 ± 0.054 |
| SSGLMGFLFPMQ | 0.721 ± 0.017 |
| LRKTNQKIRSFK | 0.614 ± 0.037 |
| GRSKKGTISMNS | 0.67 ± 0.0077 |
| SSSCRCSRVIGR | 0.589 ± 0.064 |
| WGPGGRRGVGHV | 0.727 ± 0.058 |
| VSGWDCEGDWVA | 0.76 ± 0.0096 |
| LGAPPPLGLSPS | 0.733 ± 0.019 |
| PQILTSRVAIKL | 0.646 ± 0.068 |
| LFAHSLRLSFAC | 0.7054 ± 0.0031 |
| RAGGSANVLAGE | 0.6926 ± 0.0016 |
| TDLSLSPAALRH | 0.717 ± 0.1 |
| VSPLVRVFSCAI | 0.598 ± 0.033 |
| FSLSRLCFCFRS | 0.529 ± 0.024 |
| SRVYRSCKNVKR | 0.7383 ± 0.0069 |
| RSPPAVSLVTIP | 0.6911 ± 0.0052 |
| VQSGIRLIFGRA | 0.545 ± 0.014 |
| SFCHWHLFPPRS | 0.711 ± 0.041 |
| IIEESTRPSPLG | 0.697 ± 0.059 |
| WGRCGAVGRGGA | 0.693 ± 0.029 |
| IKKKVKNQKENQ | 0.726 ± 0.013 |
| VGVWTGGDVDCH | 0.777 ± 0.086 |
| PPIVHPGSLRSA | 0.673 ± 0.024 |

| Sequence | protein stability index |
| --- | --- |
| WKNGYITGHRYM | 0.66596 ± 0.00041 |
| GGWDLIASVREF | 0.649 ± 0.017 |
| SVLPSLRPGSGL | 0.707 ± 0.016 |
| ICLGCFEEYEGV | 0.812 ± 0.077 |
| SLPQYPSGPTLT | 0.709 ± 0.029 |
| LTPNSLCSFLSR | 0.702 ± 0.013 |
| PLLFPSSPLPPS | 0.63 ± 0.036 |
| VRRGCGVGACPG | 0.618 ± 0.017 |
| LAGGGARWGVVR | 0.659 ± 0.033 |
| EKKKKKAKKEKN | 0.764 ± 0.045 |
| KKGGKEEPSRRK | 0.741 ± 0.084 |
| LAPSWVGYVSGH | 0.7 ± 0.069 |
| SPPPLPPPLSRP | 0.638 ± 0.067 |
| PLLTPLCSVSHS | 0.689 ± 0.0072 |
| RLFAPSHSSSLP | 0.733 ± 0.055 |
| ARRVILRANGRI | 0.668 ± 0.035 |
| GGGVGEWCLVRL | 0.6849 ± 4.4e-05 |
| GMRRGGGGCRGW | 0.716 ± 0.033 |
| PARPLSRPPLPP | 0.72 ± 0.052 |
| DKGTMNRARGGS | 0.683 ± 0.024 |
| PSPPPPAPPPPP | 0.666 ± 0.013 |
| LAVVGGVEKKYH | 0.676 ± 0.055 |
| PPSPPSSHPLLP | 0.679 ± 0.0078 |
| APPPPARDLPPR | 0.721 ± 0.017 |
| CGLLEGGRCRKE | 0.7922 ± 0.0071 |
| KRFDKEWEIWRS | 0.733 ± 0.023 |

| Sequence | protein stability index |
| --- | --- |
| VPCYSSACHGDA | 0.669 ± 0.1 |
| DICSNSGRQRFL | 0.685 ± 0.013 |
| GHKIIPPSTRFR | 0.626 ± 0.063 |
| VLWLGSFKSPRR | 0.727 ± 0.022 |
| RGSGSGTRCRRS | 0.682 ± 0.11 |
| AHPPLLPPLLPS | 0.639 ± 0.015 |
| AKSGEVIGSWFG | 0.67127 ± 0.00043 |
| GDFFVGLEWRDI | 0.622 ± 0.13 |
| LSPCVGGLFGVV | 0.693 ± 0.017 |
| GWDQSGVVFVCG | 0.605 ± 0.017 |
| WIRRWVGVEGPL | 0.707 ± 0.079 |
| APPPRSPPPPPL | 0.6796 ± 0.0067 |
| AHPGHRPSHPPY | 0.727 ± 0.08 |
| VWVVSGRGGWWG | 0.6336 ± 0.0033 |
| VRRSHSGSNDVP | 0.673 ± 0.14 |
| LPVPFFPPCPFR | 0.732 ± 0.012 |
| WIPSYMRFCALT | 0.788 ± 0.098 |
| PPAPFLLNPVPP | 0.727 ± 0.015 |
| FTSPLPPVAPPL | 0.693 ± 0.03 |
| SAWVGVGHGRVS | 0.6113 ± 0.0056 |
| LISHHSEFPVIL | 0.744 ± 0.031 |
| TLRRPMQVPLGH | 0.633 ± 0.04 |
| NSTPTTPPIPHQ | 0.702 ± 0.091 |
